Reference: publication doi:10.1101/2024.03.07.583919 (bioRxiv, 2024)
Residue numbers refer to the chain shown, from its start. Names may count otherwise.

B1: wild-type human GCAP1-E6S (Guanylate Cyclase Activating Protein 1), myristoylated (natural protein)
chain: MGNVMSGKSVEELSSTECHQWYKKFMTECPSGQLTLYEFRQFFGLKNLSPSASQYVEQMFETFDFNKDGYIDFMEYVAALSLVLKGKVEQKLRWYFKLYDVDGNGCIDRDELLTIIQAIRAINPCSDTTMTAEEFTDTVFSKIDVNGDGELSLEEFIEGVQKDQMLLDTLTRSLDLTRIVRRLQNGEQDEEGADEAAEAAG
modifications: myristoylated at the N-terminal (by S. cerevisiae N-myristoyltransferase)
B2: E111V-GCAP1 (human GCAP1-E6S with the cone-rod dystrophy substitution E111V), myristoylated (natural protein)
chain: B1 chain with E111V
modifications: myristoylated at the N-terminal (by S. cerevisiae N-myristoyltransferase)

Biological target: the molecule itself
Assay: SEC

Row | Protein | binding result
1 | B1 | binds
2 | B2 | binds
